Like-named read-outs stand apart in the source and are kept apart here.

The target of assay [1] is T1, alpha-cobratoxin (Naja kaouthia, UniProt P01391).
T1 chain: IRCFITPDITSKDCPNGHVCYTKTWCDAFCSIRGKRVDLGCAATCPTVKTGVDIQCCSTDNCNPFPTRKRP
The assay is described as follows: BLI.

Assay [2] deals with T1, alpha-cobratoxin. In words: SPR.
Assay [3] has as its target T1, alpha-cobratoxin. The assay is described as follows: SPR.
Assay [4] deals with T2, alpha-bungarotoxin (Bungarus multicinctus, UniProt P60615). The assay is described as follows: BLI.
T2 sequence (P60615 22-95): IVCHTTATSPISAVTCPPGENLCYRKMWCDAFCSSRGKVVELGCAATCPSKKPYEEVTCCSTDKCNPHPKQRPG
For assay [5], the target named is T1, alpha-cobratoxin. In words: BLI.
Assay [6] addresses T1, alpha-cobratoxin. The assay is described as follows: BLI.
In assay [7] the target is T1, alpha-cobratoxin. In words: BLI.
Assay [8] concerns the target T2, alpha-bungarotoxin. The assay is described as follows: BLI. The source holds these as a separate data set.

B1: 2554_01_D11 (antibody, V domains shown)
VH: QVQLVQSGAEVKKPGSSVKVSCKASGGTFSSYAISWVRQAPGQGLEWMGGIIPIFGTANYAQKFQGRVTITADESTSTAYMELRSLRSDDTAVYYCARDNLGYCSGGSCYSDYYYYYMDVWGQGTLVTVSS
VL: SNFMLTQPRSVSESPGKTVTISCTRSSGSIGSDYVHWYQQRPGSSPTTVIYEDNQRPSGVPDRFSGSIDSSSNSASLTISGLKTEDEADYYCQSYDRSNHEVVFGGGTKLTVL
Consider B1, for which the koff stood at 0.000327 s⁻¹ in the assay with alpha-cobratoxin [1], 0.00388 s⁻¹ with alpha-bungarotoxin [4] and 0.000396 s⁻¹ with alpha-cobratoxin [5]. The dissociation constant (Kd) in the assay with alpha-cobratoxin [2] amounted to 10.4 nM; in the assay with alpha-cobratoxin [3], 2.3 nM; with alpha-cobratoxin [6], 2.91 nM; in the assay with alpha-cobratoxin [7] it was 2.9 nM; with alpha-bungarotoxin [8], 122 nM.

Values taken from US20260317413 (published 2026).
